Test [1] concerns the target T1, IL13RA2 Protein, mouse Recombinant- His tag (mouse, UniProt O88786 22-334, limits assumed).
T1 construct: also called mouse recombinant His tagged protein; not shown: His tag
T1 sequence (looked up): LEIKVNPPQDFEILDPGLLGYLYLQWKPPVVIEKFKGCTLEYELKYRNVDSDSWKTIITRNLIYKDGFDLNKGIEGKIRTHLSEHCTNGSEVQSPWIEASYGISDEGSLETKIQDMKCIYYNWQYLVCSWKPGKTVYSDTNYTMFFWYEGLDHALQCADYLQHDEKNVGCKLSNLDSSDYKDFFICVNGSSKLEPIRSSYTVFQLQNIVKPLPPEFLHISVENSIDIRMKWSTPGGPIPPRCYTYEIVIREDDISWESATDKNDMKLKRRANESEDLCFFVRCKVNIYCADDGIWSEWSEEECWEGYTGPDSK
Description: BLI; biotinylated VHH captured on streptavidin biosensor, antigen 1 uM in solution. As to the method: (§1) Binding Affinity for the VH domains with IL13Rα2 are calculated as follows: Biotinylated VHHs were individually captured on streptavidin biosensors. VHH-captured biosensors were dipped in wells containing antigen and the binding response was measured. Biosensors were later dipped in buffer wells to observe the dissociation of bound antigen from captured VHH. (Schematic representation of the process depicted in FIG. 26, upper left corner). In this case, the IL13RA2 protein used was human recombinant protein extracellular domain; Rhesus macaque IL13R alpha 2 protein with His tag or mouse recombinant His tagged protein or irrelevant protein His tagged were used as controls.
(BLI is a label-free optical method that tracks binding on a fibre tip over time.)

For test [2], the target named is T2, IL13RA2 Protein, Rhesus macaque, His tag (Rhesus macaque, UniProt A0A5F8A9D9 27-343).
T2 construct: the summary sentence says cynomolgous; also called Rhesus macaque IL13R alpha 2 protein with His tag; cynomolgous IL 13RA2 (as the text calls it); not shown: His tag
T2 sequence: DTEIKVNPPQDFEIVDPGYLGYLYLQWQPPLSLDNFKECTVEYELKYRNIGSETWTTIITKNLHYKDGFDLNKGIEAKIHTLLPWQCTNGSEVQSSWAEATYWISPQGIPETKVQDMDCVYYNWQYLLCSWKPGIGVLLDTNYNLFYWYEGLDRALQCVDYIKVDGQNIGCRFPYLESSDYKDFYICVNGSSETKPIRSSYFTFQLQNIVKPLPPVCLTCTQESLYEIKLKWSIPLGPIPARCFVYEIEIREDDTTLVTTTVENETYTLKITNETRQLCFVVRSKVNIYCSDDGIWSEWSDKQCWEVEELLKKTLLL
The test is described as above. As to the method: as §1

Test [3] deals with T3, IL13RA2 Protein, Human, Recombinant (ECD)-His tag (human, UniProt Q14627 27-343).
T3 construct: extracellular domain; also called human recombinant protein extracellular domain; human IL13Ra2-His6
T3 sequence: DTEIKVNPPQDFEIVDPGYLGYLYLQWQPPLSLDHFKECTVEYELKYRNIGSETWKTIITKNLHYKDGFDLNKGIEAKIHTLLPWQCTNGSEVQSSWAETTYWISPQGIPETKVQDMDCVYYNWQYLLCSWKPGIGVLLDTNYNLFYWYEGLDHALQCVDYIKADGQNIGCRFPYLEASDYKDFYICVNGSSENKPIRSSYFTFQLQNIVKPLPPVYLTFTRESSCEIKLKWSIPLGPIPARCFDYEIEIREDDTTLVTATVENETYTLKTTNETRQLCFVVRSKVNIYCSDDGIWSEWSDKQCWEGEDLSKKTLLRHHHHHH
Described as above. As to the method: as §1

The target in a further test is T4, Mouse CD70 mFc (mouse, UniProt O55237 45-195).
T4 construct: not shown: mFc
T4 sequence (looked up): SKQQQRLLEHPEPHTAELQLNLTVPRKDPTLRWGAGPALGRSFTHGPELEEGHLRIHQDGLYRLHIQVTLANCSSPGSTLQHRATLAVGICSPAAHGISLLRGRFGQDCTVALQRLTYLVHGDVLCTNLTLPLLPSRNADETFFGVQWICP
The experiment in a line: BLI, single point; His-tagged VHH captured on HIS1K biosensor, antigen 1 uM in solution. As to the method: (§2) Next the polypeptides were characterized for CD70 binding kinetics, e.g. by affinity measurements. An affinity measurement method used in this study is illustrated in FIG. 1A, left bottom graphic image. Briefly, His-tagged VHH constructs were individually captured on HIS1K biosensors. VHH-captured biosensors were dipped in wells containing antigen and binding responses were measured. Biosensors were later dipped in buffer wells to observe the dissociation of bound antigen from the VHHs. Biosensors were regenerated and similar binding kinetic assays were performed for subsequent antigens. Single point KD analysis using BioLayer interferometry with a soluble VHH format was undertaken.

The target of the next test is T5, Human CD70 mFc (human, UniProt P32970 39-193).
T5 construct: not shown: mFc
T5 sequence (looked up): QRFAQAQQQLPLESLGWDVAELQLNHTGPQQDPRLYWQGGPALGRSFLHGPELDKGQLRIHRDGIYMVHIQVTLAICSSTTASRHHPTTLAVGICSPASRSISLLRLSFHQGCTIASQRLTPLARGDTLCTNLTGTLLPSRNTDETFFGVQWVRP
The test is described as above. As to the method:
as §2

For test [4], the target named is T1, IL13RA2 Protein, mouse Recombinant- His …. Description: BLI; summary of Tables 9A-9C. As to the method: as §1
In test [5] the target is T2, IL13RA2 Protein, Rhesus macaque, His tag. The experiment in a line: BLI; summary of Tables 9A-9C. As to the method:
as §1

Some results are limits rather than exact numbers.

B1: VH36f1 (VHH)
VHH: QVQLQESGGGSVQPGGSLRLSCAASGINISSDVMEWFRQGPGEQRELVAHITTNSRTEYADFVKGRFTISRANAKNTLYLQMNGLKPEDTALYYCALRRGGRILWGQGTQVTVSS
modifications: biotinylated (site not stated)
notes: Expressed in E. coli and 6xHIS purified; also called VH36f1 Biotin; Anti-IL13Rα2 VH36
The Kd is the free concentration of one partner at which half of the binding sites on the other are occupied at equilibrium, for simple one-to-one binding. As a reminder, the koff is a measure of how fast the partners let go of each other. What is called kon is the rate constant with which the complex forms. Broadly, the t½ is how long it takes for the measured level to halve. As to B1, the “Binding Response” value in test [1] is -0.01 nm. Also, in test [2], the “Binding Response” value is 1.02 nm, the Kd was ≤ 1.44 nM, the koff is ≤ 0.0001 s⁻¹ and the kon was determined as 69300 M⁻¹ s⁻¹. In addition, the t½ in test [2] is ≥ 116 min. Moreover, in test [3], the “Binding Response” value is 0.67 nm, the Kd was determined as 1.3 nM, the koff came out at 0.000133 s⁻¹ and the t½ came out at 87 min.

B2: IL13Ra2_2TIG4_f3 (VHH)
VHH: QVQLQESGGGLVQPGGSLRLSCAASGRTYGMGWFRQAPGKEREFVAVGVWSSGNTYYADFARGRFTISRDNAKNTVYLQMDSLKPEDTAVYYCAAPRYSSYTTYHAAYDYWGPGTQVTVSS
modifications: biotinylated (site not stated)
notes: Expressed in E. coli and 6xHIS purified; also called IL13Ra2_2TIG4_f3-Biotin
B2: the “Binding Response” value in test [1] is -0.02 nm. Besides, in test [2], the “Binding Response” value came to 1.17 nm, the Kd was 3.62 nM, the koff came out at 0.000388 s⁻¹ and the kon was 107000 M⁻¹ s⁻¹. The t½ in test [2] was 30 min. In addition, in test [3], the “Binding Response” value turned out to be 0.72 nm, the Kd is 5.02 nM, the koff was 0.000697 s⁻¹ and the t½ is 17 min.

B3: VH43f2 (VHH)
VHH: QVQLQESGGGLVQPGGSLRLSCTASGSIRGIGYMAWGRQGPGKPRELIATINSAGDTNYAESVKGRFTVSRDNAENTLYLQMNNLKSEDTAVYYCNARPGLQSYWGQGTQVTVSS
modifications: biotinylated (site not stated)
notes: Expressed in E. coli and 6xHIS purified; also called VH43f2-Biotin; Anti-IL13Rα2 VH43
B3: in test [1], the “Binding Response” value was -0.04 nm. For the same molecule, in test [2], the “Binding Response” value amounted to 0.96 nm, binding was put at a Kd of 27.1 nM, the koff came to 0.00164 s⁻¹ and the kon is 60500 M⁻¹ s⁻¹. Moreover, in test [2], the t½ was 7.04 min. Besides, in test [3], the “Binding Response” value is 0.92 nm, the Kd came to 4.65 nM, the koff was 0.000941 s⁻¹ and the t½ came out at 12.3 min.

B4: VH52f3 (VHH)
VHH: QVQLQESGGGLVQPGGSLRLSCEVSGSIFSINRMAWYRQVPEKEREMVAQITYGDTIKYYGSAKGRFTISRDSAKNAVYLQMNSLKPEDTAVYRCNIVGVLTTGHYEDSFWGQGTQVTVPS
modifications: biotinylated (site not stated)
notes: Expressed in E. coli and 6xHIS purified; also called VH52f3 Biotin; Anti-IL13Rα2 VH52
Turning to B4, in test [1], the “Binding Response” value is -0.02 nm. Further, in test [2], the “Binding Response” value is 1.13 nm, the dissociation constant (Kd) was ≤ 1.49 nM, the koff is ≤ 0.0001 s⁻¹ and the association rate constant (kon) is 67000 M⁻¹ s⁻¹. Further, the t½ in test [2] is ≥ 116 min. Besides, in test [3], the “Binding Response” value came to 0.87 nm, the Kd is ≤ 0.806 nM, the koff was ≤ 0.0001 s⁻¹ and the t½ is ≥ 116 min.

B5: VH53f3 (VHH)
VHH: QVQLQESGGGLVQPGGSLRLSCEVSGSISSINRMAWYRQVPGKEREMVAQITYGDTIKYYGSAKGRFTISKDSAKNAVYLQMNSLKPEDTAVYRCNIVGVLTTGHYENSFWGQGTQVTVSS
modifications: biotinylated (site not stated)
notes: Expressed in E. coli and 6xHIS purified; also called VH53f3 Biotin; Anti-IL13Rα2 VH53
As to B5, the “Binding Response” value in test [1] is -0.01 nm. For the same molecule, in test [2], the “Binding Response” value was 1.35 nm, the Kd is ≤ 1.42 nM, the koff is ≤ 0.0001 s⁻¹ and the kon was 70200 M⁻¹ s⁻¹. In test [2], the t½ is ≥ 116 min. Also, in test [3], the “Binding Response” value was 1.04 nm, the Kd is 0.89 nM, the off-rate (koff) was 0.000118 s⁻¹ and the t½ is 98 min.

B6: Anti-CD70 VHH, 3HCS92 (VHH)
VHH: QVQLQESGGGLVQAGGSLRLSCAAPRSIFSINAMGWYRQAPGKQRELVAAITSGGSPTYADSVKGRFTISRDNAKNTVYLQMNSLKAEDTAVYYCATGPYGLDNALDAWGQGTQVTVSS
notes: Soluble His-tagged VHH monomer captured on HIS1K biosensors; also called H1; H1 (WT)
For the molecule B6, in the test with Mouse CD70 mFc, the “Binding Response” value amounted to 0.03 nm, the Kd was 334 nM, the koff came out at 0.000427 s⁻¹ and the kon worked out at 1280 M⁻¹ s⁻¹. In the test with Mouse CD70 mFc, the t½ worked out at 27 min. In the test with Human CD70 mFc, the “Binding Response” value turned out to be 0.87 nm, binding was put at a Kd of 5.29 nM, the koff turned out to be 0.000377 s⁻¹ and the association rate constant (kon) came out at 71300 M⁻¹ s⁻¹. In addition, the t½ with Human CD70 mFc was 31 min.

B7: Anti-CD70 VHH clone 3CEK186 (VHH)
VHH: QVQLQESGGGLVQTGGSLRLACTASGFTFDDYAIAWFRQAPGKEREFVAAISWSGGTTHYADSVKGRFTISRDNAKNTLYLQMSSLKPEDTAVYFCAKSLRSSPSSRWFGSRGQGTQVTVSS
notes: Soluble His-tagged VHH monomer captured on HIS1K biosensors; also called C1; C1 (WT)
Regarding B7, the “Binding Response” value with Mouse CD70 mFc turned out to be 0.01 nm.

B8: VH57f5 (VHH)
VHH: QVQLQESGGGLVQPGGSLRLSCAASGSIFNTNGMGWYRQAPGKQRERVAGISSGGNTVYAASVEGRFTISRDNAKNTGYLQMNNLKPEDTAVYYCRVAGRQDDYWGQGTQVTVSS
modifications: biotinylated (site not stated)
notes: Expressed in E. coli and 6xHIS purified; also called VH57f5 Biotin; Anti-IL13Rα2 VH57
On to B8, for which, in test [1], the “Binding Response” value was determined as 1.17 nm, the Kd was 33.7 nM, the dissociation rate constant (koff) came to 0.00485 s⁻¹ and the on-rate constant (kon) amounted to 140000 M⁻¹ s⁻¹. Besides, in test [1], the t½ was 2.46 min. In test [2], the “Binding Response” value worked out at 0.93 nm, the equilibrium dissociation constant (Kd) was determined as 112 nM, the koff came to 0.00485 s⁻¹ and the kon was determined as 41700 M⁻¹ s⁻¹. In test [2], this molecule had a t½ of 2.4 min. In test [3], the “Binding Response” value was 1.36 nm, the Kd turned out to be 1.84 nM, the dissociation rate constant (koff) came out at 0.000397 s⁻¹ and the t½ is 29 min. The “fold decrease in affinity compared to human counterpart” value in test [4] was ~2 fold. In test [5], the “fold decrease in affinity compared to human counterpart” value was ~2 fold.

Values taken from US20250090663A1 (MYELOID THERAPEUTICS, published 2025).
